# Test results published in paper PMC7405809.
# pEC50: −log10 of the molar value.
# Assays:
# [1] = target: BFL-1ΔC C4S/C19S conjugated to 4E14 at C55 (UniProt Q16548); experiment: fluorescence polarisation
# His6-BFL-1ΔC C4S/C19S = His6-BFL-1ΔC C4S/C19S (UniProt Q16548); experiment: fluorescence polarisation
substance,measurement,setting,value
FITC-BID BH3 peptide,pEC50,[1],5.89
same,pEC50,His6-BFL-1ΔC C4S/C19S,7.64
